Assay: soluble on expression in E. coli; label from the status in PepcDB or PDB records

Sequence | soluble on expression in E. coli
MGHHHHHHSHMPKGIALALGLNAVDPKHYGGWAGKLNACEADAEDMAAIAAERGFAVTTLMTKAATRAKVIDAIGKAAKALGKGDIFMLSYSGHGGQVPDTSNDEPDGVDETWCLFDGELIDDELYALLGKFAAGVRVLVFSDSCHSGTVVKMAYYNGTTAARSAGPDEGEIRYRAMPQSVAMRTYRANREFYDTIQQKTKKVDLADVKASILLISGCQDNQLSQDGAFNGAFTGQLLRVWKNGLYKGSYRSFHKAIVRRMPPDQTPNFFTAGTPDPAFLKQRPFTV | soluble
MRTNSEIISLIQSKVEERKMSMSELARNVGIAKSTMSRYFNKTREFPLNRADDFAKALNISTEFLLGIDLNSEVDGSELLGIYRELEEQRRVIVLDTAKEQLEEQTKIINFSDKKTDIEDIFEVKGTTFAAAASGFGRGFEADDYDTYTVYTDEEPPHYDYAIGIRGDSMLPKYEQGDMLYIVDKGMSTYSGQLCIVVHNGNTYFKKVYTEHDGLRLVSLNKKYSDIFIGYPPAEDTYIKIYDVVGSFTPIEF | not soluble
MRGSHHHHHHTDPALRAIVISRHVAIPDGELEITAIRAQGAGGQHVNKTSTAIHLRFDIRASSLPEYYKERLLAASHHLISSDGVIVIKAQEYRSQELNREAALARLVAMIKELTTEKKARRPTRPTRASKERRLASKAQKSSVKAMRGKVRSGREGLCGR | soluble
MKRAAFYTLGCKVNQYETEAISEMFEKAGYKIVDFEDEADVYVINTCTVTNLSDRKSRQMIRRAKRNNENSIVIVIGCYAQTAPEEVSKIEGVNLVVGTKDRSRILEYLKELETSGGRRNYVGDIMKTREFEELGVNVYKERTRAFIKIQEGCNQFCTYCIIPYARGPVRSRSEENILKEVSGLAHSGYKEVVLTGIHVASYGKDIKNTSLIDIIRKVHEIEGIERIRLGSIEPTTVTEEFVRAIKGMEKLCPQFHISLQSGCDSTLKRMNRKYTTKEYLRSVELLRENLKDVAVTTDVMVGFPGETDEEFNETCRFVEKVLFARMHVFKYSRRKGTPAASYPDQVAPQKKEERSRILIELASRMTLEYNKSFTGRVLPVLFEQEVKGKEGFMEGLTPNYIRVECKGDKDIEGQILNVLLREAKDDYIVGEIVN | soluble
MGHHHHHHSHMRVFALQLESFKENLMQSLFNSIPKKSVIVLPEYVINPFFHHNMGLDVNEISDQSARAVEFLSQKCEELDLIVSAPVLLEEHSKIYKKIALISKESVKYYTQQRLIPYPHWDEESFFDNEKSAFKELLVFERDGLKFAPLFGFEAHFDEIWVQAKNQGVDVVLLSSVATFESNERWRLLCQMRAFCASCVVVRANRIGAYRQIIVEEDQKNEFLWKFYGDSFVALPNGAIEDSLEGKMGALNAQIDKNDIDEWAKLWHFRTIKEG | soluble
MGSDKIHHHHHHMENQDYTVRLTVQASPQEVFKQINRVTAWWTKNLQGDSEKLNDVFTVNFPGMHVSTQKLIECIPDKKVTWMVTDSHLTFIQRKTEWTDTTIQFDISRNVKHTEVLFTHKGLNPAIECYGDCAKGWDYFIKGSLFKLLTEGTGTPE | not soluble
MGSDKIHHHHHHMLERYQGEDGRRLRVEAALDSKLAKGNQALAEAIADVATLRQFKAGQALIEQGGDDNQVYILISGSCDVIVNAKVVNRRGPGDHVGEMAAIQPAQRRSATIMATEQVLAFELPEPVFANLAATYPDIYRLIAKDLARRLLQRNAVTGTPRKRIRVFVISSVEALPIARAIQTAFEYDPFTVIVWTDGVFKVANYTLQSLEDEIDNSDFAIAIAHPDDKVESRQAQWPQPRDNVIFELGLFMGRLGRARAILMEPRDEKVKLPSDLAGVTTIGYRFDPDGDTQAALAPACNRLRNHIVELGLAVG | not soluble
MGSDKIHHHHHHMIVMDAETLKELIRDDFEVINANETVSKLFPMLEKLDRDKANAILVEEDGKIVGVVREKDLIRGSVLKNPHETKVKSLLVRTGKIDLNELDPYKVARRFVEDSTPFVIVQIDDKRVGVIYINDFLSALKDEFKDVKVREVMNPEVITVRRFDSAAKALSVMRTHGIDRVVVVDENNKVIGILTGKDVVDRVISPRKRARMGDSSGEKEKTLSIMVESIMSSPVVSVSRNDSVAEVIDLMVENRISSVVVTRDGLPDGIVIKKDILEYYLKKESRKEFNVQISTADITLDEFDREAILEDVEKLMRKFSDFLGESFLFIYIKRHKEHFRNLPLIHVRLKLASEKGNFMVSGESWGVEYAVHVALKKLEREILKEKELLEDKRMIKRFYEEVLEY | not soluble
MAHHHHHHMSSVSSPPLTDAEVRELSTAEIRLNLERCSRLLSQASLLRRLRDGGEGIRHRSELFAKELERRHTVEAANGDASTRLASSTLTEALKRENEAAILSESTHNATDAAREIAQKYRDQRIDVEATVRRIYEGILSESEIQRILHSVPPRFFLTYAETCEMERQLARDARKVELQKLAAQAARLSATPQ | soluble
MSLNQSFTQFGDGYASTGTLNIGDVLDIMIWEAPPAVLFGGGLSSMGSGSAQQTKLPEQLVTARGTVSVPFVGDISVVGKTPGQVQEIIKGRLKKMANQPQVMVRLVQNNAANVSVIRAGNSVRMPLTAAGERVLDAVAAVGGSTANVQDTNVQLTRGNVVRTVALEDLVANPRQNILLRRGDVVTMITNPYTFTSMGAVGRTQEIGFSARGLSLSEAIGRMGGLQDRRSDARGVFVFRYTPLVELPAERQDKWIRQGYGSEAEIPTVYRVNMADAHSLFSMQRFPVKNKDVLYVSNAPLAEVQKFLSFVFSPVTSGANSINNLTNEGHHHHHH | not soluble
MTEIKYKVITKDAFALPYTIIKAKNQPTKGVIVYIHGGGLMFGKANDLSPQYIDILTEHYDLIQLSYRLLPEVSLDCIIEDVYASFDAIQSQYSNCPIFTFGRSSGAYLSLLIARDRDIDGVIDFYGYSRINTEPFKTTNSYYAKIAQSINETMIAQLTSPTPVVQDQIAQRFLIYVYARGTGKWINMINIADYTDSKYNIAPDELKTLPPVFIAHCNGDYDVPVEESEHIMNHVPHSTFERVNKNEHDFDRRPNDEAITIYRKVVDFLNAITMV | soluble
MVTKEQVVEALEGIVDPFLHKTLKETSAIKEVTVKPEKEHVSVKIAIVKTGTAEQMQLQSGIVKLVKELGAATVGLRFAEFTEEELAQFAPEQEEEQSESLLSPNSKTTFLAVASGKGGVGKSTVSVNLAVALARLGKKVGIIDADIYGFSVPDMMGIEKRPIVRGDKIIPVERLGVKVISMGFFVEDNAPVIWRGPMLGKMLNHFFTEVEWGDLDYLVLDLPPGTGDVALDVHSMLPSCKEIIVTTPHPTAAFVAARAGAMALRTEHSILGVVENMAYFESKVTGEKEYVFGKGGGDKLATELQTNVLGRIPLQQPDWNKEDFAPSVYEDTHTTGIIYSKIAETVIDKTAVTQK | not soluble
MGNTMCPKMESAFSLLGKRWNGLIIHVLMDGPKRFKEITETIPMISQKMLAERLKELEQNEIVERQVLPETPVKVIYTLTEKGTALQAVFQEMQAWADQFCEPGDTVCEEEKLEHHHHHH | soluble
MNYSACTSILVGPQATMDGSVLIGRNEDAKAAWPKHFIVHPATTVATPPQFVSTDNGFTMPLPTQAAKYTATPEWTDKYGLFEEDGINEYGVAMSATESTYSNERVLGADPLVKDGLGEEAMVTVVLPYVKTAREGVARLGQLIEQYGTNESNGILFADQQEAWYLETGAGHYWVAQRIPANAYAVVANQMAIQAVDFADADNFMFAKNLQAFVTDNHLNPHPDRFIWREIFGTQDQSDLYYNTPRVWYGQKRFTPQVSQEPQSFDLPFIQYADRLLSVGDAQQYLSSHFEETPYDPVGSGTAEQKHRFRPVSLAKTQESHVLQLRPNMTPGLAGIQWLAMGVGAQSVYVPFYAGIDSTPEAYHLGTETYDSKSAYWTYKLVSVLLDAHYHTALPTVSETQKALRIAFKQAVQETDRGAQTLSGTELSRYLTQRSNEVAELGLKRYRELAATLITRATDLGPLNYHQDLNLLEHHHHHH | not soluble
MHQVVCATTNPAKIQAILQAFHEIFGEGSCHIASVAVESGVPEQPFGSEETRAGARNRVANARRLLPEADFWVAIEAGIDGDSTFSWVVIENASQRGEARSATLPLPAVILEKVREGEALGPVMSRYTGIDEIGRKEGAIGVFTAGKLTRASVYHQAVILALSPFHNAVY | soluble
MGSDKIHHHHHHMVENYNFSGVPMRLDDLTYMNPWWEGREDYHVRRWKEQRLHWKPGWLEKLSLKPFSLNFVLGPRQVGKTTGIKLLIQELLKDNPPESILYINVKVLPGHRELLNLLREFQELKEKEGVKTGYIFLDEVTSLEGWWRGVKPLIDAGLLKNDVVTVTGSSSLGVRRDIELFPGRRGSGKTIEVMPLSFPEYVEVMGLKKPELYREKVLKLFEDYLTTGGFPTSINGLPMEDLLGAYIGEIVRFGKSLEIAKETLSALIRSAPSATSFRALAGITSGYSYKVVQDYIELFTELYVLGIAYLKQGNQVLYKREKKFFFRDPLLARLFALWSGTELKEDALYEWVVQEHLYRRFGEVYYYRNSYEIDAIAGDLKVEVKAGKTHRRYPKNVRVLEKEDVPFFLLELTHESTSRF | not soluble
MSRLTELLRQVRKADAQLGTDLEAEVAALTKRRTFGLVFEQHQPEAVELPGRVVRRGDKVRVLPPRGGTKAGDQRLWRTTRIECVDGQRVAHLAELDVEEPETRAVLADDVVVVAEFRDRIYPGLVETGRVERGGDKPFHTVVNAENYHALEMLTYTHRHSIDAIYIDPPYNTGARDWKYDNDYVASDDDYRHSKWLAFMERRLKICRELMRSDATLVATIDEHEVNRLGVLLDQLFPESTRQLVTIVNNPKGVTQGYLSRVEEYAFFVFGPDARIGSVDDDLLTHRDMADAEGELQRPRWKGLLRSGDDSLRADRKDMFYPVWFDESTGRLSHAGEALPLDETPDFSPQDGLTPIWPIRRDMKEGPTRAAPRRSILDYALHPHL | not soluble
MSLSEKKVHLRLRKELSVPIAVVENESLAQLSYEEESQASLMDISMEQQQLRLHSHFDNSKVFTENNRYIVKTLQTDYSSGFSNDDELNGYIDMQIGYGLVNDHKKVYIWNIHSTQKDTPYITVPFRSDDNDEIAVAPRCILTFPATMDESPLALNPNDQDETGGLIIIKGSKAIYYEDINSINNLNFKLSEKFSHELELPINSSGGEKCDLMLNCEPAGIVLSTNMGRIFFITIRNSMGKPQLKLGKLLNKPFKLGIWSKIFNTNSSVVSLRNGPILGKGTRLVYITTNKGIFQTWQLSATNSHPTKLIDVNIYEAILESLQDLYPFAHGTLKIWDSHPLQDESSQLFLSSIYDSSCNETYYILSTIIFDSSSNSFTIFSTYRLNTFMESITDTKFKPKIFIPQMENANDTNEVTSILVMFPNAVVITQVNSKLDSSYSMRRKWEDIVSLRNDIDIIGSGYDSKSLYVLTKQMGVLQFFVKENEETNSKPEVGFVKSHVDQAVYFSKINANPIDFNLPPEISLDQESIEHDLKLTSEEIFHSNGKYIPPMLNTLGQHLSVRKEFFQNFLTFVAKNFNYKISPELKLDLIEKFEILNCCIKFNSIIRQSDVLNDIWEKTLSNYNLTQNEHLTTKTVVINSPDVFPVIFKQFLNHVVFVLFPSQNQNFKLNVTNLINLCFYDGILEEGEKTIRYELLELDPMEVDTSKLPWFINFDYLNCINQCFFDFTFACEEEGSLDSYKEGLLKIVKILYYQFNQFKIWINTQPVKSVNANDNFININNLYDDNHLDWNHVLCKVNLKEQCIQIAEFYKDLSGLVQTLQTLDQNDSTTVSLYETFFNEFPKEFSFTLFEYLIKHKKLNDLIFRFPQQHDVLIQFFQESAPKYGHVAWIQQILDGSYADAMNTLKNITVDDSKKGESLSECELHLNVAKLSSLLVEKDNLDINTLRKIQYNLDTIDAEKNISNKLKKGEVQICKRFKNGSIREVFNILVEELKSTTVVNLSDLVELYSMLDDEESLFIPLRLLSVDGNLLNFEVKKFLNALVWRRIVLLNASNEGDKLLQHIVKRVFDEELPKNNDFPLPSVDLLCDKSLLTPEYISETYGRFPIDQNAIREEIYEEISQVETLNSDNSLEIKLHSTIGSVAKEKNYTINYETNTVEYEGHHHHHH | soluble

Source: the DeepSol protein solubility set
